Test results published in the supplement of paper PMC9112550, “Optimization of the antimicrobial peptide Bac7 by deep mutational scanning” (BMC Biology, 2022).

tested on: Escherichia coli TOP10; test: shrunken log2 fold change of peptide-encoding DNA abundance (4.5 h post-induction vs induction); higher = less antimicrobial activity (less host growth inhibition); details: time post-induction: 4.5 h; library: site-saturation at positions 5, 18, 19, 20
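Further: peptides expressed intracellularly from a pBAD plasmid library in pooled LB shake-flask culture, induced with 0.3% L-arabinose, DNA abundance read by NGS, three biological replicates, DESeq2 with apeglm shrinkage.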

| Sequence | shrunken log2 fold change |
| --- | --- |
| RRIRFRPPRLPRPRPRPWTDPRP | -0.345 |
| RRIRSRPPRLPRPRPRPEQPPRP | 0.591 |
| RRIRARPPRLPRPRPRPIRIPRP | 0.0541 |
| RRIRNRPPRLPRPRPRPWFSPRP | -0.796 |
| RRIRPRPPRLPRPRPRPTGEPRP | 0.396 |
| RRIRMRPPRLPRPRPRPFMEPRP | -0.096 |
| RRIRSRPPRLPRPRPRPIKMPRP | -0.47 |
| RRIRQRPPRLPRPRPRPMMVPRP | -0.0145 |
| RRIRPRPPRLPRPRPRPMAAPRP | 0.208 |
| RRIRARPPRLPRPRPRPAFTPRP | 0.315 |
| RRIRPRPPRLPRPRPRPKPTPRP | 0.434 |
| RRIRGRPPRLPRPRPRPSGRPRP | 0.522 |
| RRIRQRPPRLPRPRPRPTSPPRP | 0.218 |
| RRIRSRPPRLPRPRPRPAKWPRP | 0.235 |
| RRIRHRPPRLPRPRPRPVKTPRP | -0.164 |
| RRIRWRPPRLPRPRPRPQDLPRP | 0.107 |
| RRIRCRPPRLPRPRPRPHPLPRP | 0.989 |
| RRIRHRPPRLPRPRPRPNLHPRP | -0.759 |
| RRIRERPPRLPRPRPRPEIGPRP | -0.166 |
| RRIRHRPPRLPRPRPRPFIMPRP | -0.505 |
| RRIRWRPPRLPRPRPRPRAWPRP | 0.124 |
| RRIRVRPPRLPRPRPRPELSPRP | 0.119 |
| RRIRIRPPRLPRPRPRPIHMPRP | -0.379 |

| Sequence | shrunken log2 fold change |
| --- | --- |
| RRIRYRPPRLPRPRPRPNKAPRP | -0.0417 |
| RRIRSRPPRLPRPRPRPICNPRP | -0.0128 |
| RRIRDRPPRLPRPRPRPFPFPRP | -0.163 |
| RRIRPRPPRLPRPRPRPQTAPRP | 0.111 |
| RRIRIRPPRLPRPRPRPLCLPRP | -0.736 |
| RRIRRRPPRLPRPRPRPKRCPRP | -0.131 |
| RRIRDRPPRLPRPRPRPLQMPRP | 0.167 |
| RRIRARPPRLPRPRPRPHTYPRP | -0.126 |
| RRIRDRPPRLPRPRPRPWTPPRP | -0.0489 |
| RRIRLRPPRLPRPRPRPGCIPRP | -0.346 |
| RRIRVRPPRLPRPRPRPKFMPRP | -0.0954 |
| RRIRERPPRLPRPRPRPTIGPRP | -0.323 |
| RRIRVRPPRLPRPRPRPAIMPRP | 0.191 |
| RRIRARPPRLPRPRPRPTEHPRP | 0.46 |
| RRIRIRPPRLPRPRPRPRMTPRP | 0.043 |
| RRIRSRPPRLPRPRPRPDRFPRP | -0.0456 |
| RRIRQRPPRLPRPRPRPFAIPRP | 0.00479 |
| RRIRCRPPRLPRPRPRPPGFPRP | 0.822 |
| RRIRGRPPRLPRPRPRPKCIPRP | 0.0819 |
| RRIRERPPRLPRPRPRPYHDPRP | -0.114 |
| RRIRNRPPRLPRPRPRPDDHPRP | -0.0202 |
| RRIRMRPPRLPRPRPRPRTHPRP | 0.28 |
| RRIRWRPPRLPRPRPRPRTGPRP | 0.235 |

| Sequence | shrunken log2 fold change |
| --- | --- |
| RRIRTRPPRLPRPRPRPTCRPRP | -0.0601 |
| RRIRKRPPRLPRPRPRPSSFPRP | 0.0223 |
| RRIRCRPPRLPRPRPRPGDLPRP | -0.314 |
| RRIRARPPRLPRPRPRPFAHPRP | 0.128 |
| RRIRRRPPRLPRPRPRPYVSPRP | -0.00885 |
| RRIRWRPPRLPRPRPRPYWAPRP | -0.298 |
| RRIRMRPPRLPRPRPRPVVDPRP | 0.0138 |
| RRIRHRPPRLPRPRPRPHAQPRP | 0.0272 |
| RRIRFRPPRLPRPRPRPMEVPRP | -0.00205 |
| RRIRHRPPRLPRPRPRPDACPRP | -0.0498 |
| RRIRMRPPRLPRPRPRPSRAPRP | 1.18 |
| RRIRIRPPRLPRPRPRPVATPRP | -0.374 |
| RRIRGRPPRLPRPRPRPFWAPRP | 0.325 |
| RRIRWRPPRLPRPRPRPGAWPRP | 0.373 |
| RRIRVRPPRLPRPRPRPHRNPRP | -0.531 |
| RRIRKRPPRLPRPRPRPARCPRP | 0.782 |
| RRIRARPPRLPRPRPRPECPPRP | 0.683 |
| RRIRMRPPRLPRPRPRPIYTPRP | -0.257 |
| RRIRRRPPRLPRPRPRPMVKPRP | 0.0693 |
| RRIRLRPPRLPRPRPRPTSNPRP | -0.576 |
| RRIRARPPRLPRPRPRPISLPRP | -0.0678 |
| RRIRFRPPRLPRPRPRPERSPRP | 0.0713 |
| RRIRMRPPRLPRPRPRPKNCPRP | 0.0597 |

| Sequence | shrunken log2 fold change |
| --- | --- |
| RRIRWRPPRLPRPRPRPYDQPRP | -0.395 |
| RRIRARPPRLPRPRPRPWTWPRP | -0.327 |
| RRIRARPPRLPRPRPRPCMRPRP | 0.238 |
| RRIRGRPPRLPRPRPRPKNAPRP | 1.91 |
| RRIRLRPPRLPRPRPRPVISPRP | -0.266 |
| RRIRGRPPRLPRPRPRPPHLPRP | 0.558 |
| RRIRSRPPRLPRPRPRPDTRPRP | -0.337 |
| RRIRYRPPRLPRPRPRPRDRPRP | -0.116 |
| RRIRERPPRLPRPRPRPTPFPRP | -0.211 |
| RRIRVRPPRLPRPRPRPAIQPRP | -0.0625 |
| RRIRRRPPRLPRPRPRPSRNPRP | 0.453 |
| RRIRTRPPRLPRPRPRPFNYPRP | -0.269 |
| RRIRYRPPRLPRPRPRPLDIPRP | -1.69 |
| RRIRFRPPRLPRPRPRPFRVPRP | -0.119 |
| RRIRTRPPRLPRPRPRPQMHPRP | -0.426 |
| RRIRKRPPRLPRPRPRPHFDPRP | 0.275 |
| RRIRARPPRLPRPRPRPEWHPRP | 0.381 |
| RRIRCRPPRLPRPRPRPGYGPRP | -0.273 |
| RRIRPRPPRLPRPRPRPLTMPRP | -0.186 |
| RRIRGRPPRLPRPRPRPHITPRP | -0.0465 |
| RRIRQRPPRLPRPRPRPFSLPRP | 0.14 |
| RRIRPRPPRLPRPRPRPVWAPRP | 0.278 |
